pKd: −log10 of the molar value.
Columns and labels:
[1] = biological target: recombinant PI4KIIα (lab-made) (human) (UniProt Q9BTU6); experiment: MST; fluorescently labelled PI4KIIα (5 nM) constant, unlabelled ligand protein titrated; Tris-based MST buffer; Monolith NT.115 pico; no PI
[2] = biological target: recombinant PI4KIIα (lab-made) (human) (UniProt Q9BTU6); experiment: MST; fluorescently labelled PI4KIIα (5 nM) mixed with 1 μM PI (micelles) before the ligand protein, unlabelled ligand titrated; Tris-based MST buffer; Monolith NT.115 pico

Chain of UniProt Q9BTU6 (Q9BTU6 whole entry): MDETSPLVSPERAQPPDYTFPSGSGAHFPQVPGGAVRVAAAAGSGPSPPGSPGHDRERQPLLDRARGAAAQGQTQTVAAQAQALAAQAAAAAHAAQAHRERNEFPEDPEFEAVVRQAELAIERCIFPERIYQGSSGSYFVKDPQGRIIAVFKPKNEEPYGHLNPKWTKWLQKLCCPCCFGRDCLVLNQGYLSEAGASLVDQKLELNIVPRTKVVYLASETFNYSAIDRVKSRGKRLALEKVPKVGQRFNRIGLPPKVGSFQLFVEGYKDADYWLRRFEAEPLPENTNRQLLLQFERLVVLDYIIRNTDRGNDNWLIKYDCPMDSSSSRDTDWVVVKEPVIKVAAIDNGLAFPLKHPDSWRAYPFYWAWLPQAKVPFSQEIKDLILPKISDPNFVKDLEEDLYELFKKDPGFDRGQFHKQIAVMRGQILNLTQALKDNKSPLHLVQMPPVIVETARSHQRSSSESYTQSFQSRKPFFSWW

Row | pKd [1] | pKd [2] | Substance
1 | 6.72 | – | recombinant PITPα (#ab101666, Abcam) (from UniProt Q00169 1-270) (natural protein)
2 | 6.58 | 6.95 | recombinant PITPβ (#LS-C794864, LSBio) (from UniProt P48739 1-271) (natural protein)
